Where two headings read alike, the source gives them in different places.
T1: mouse SLC34A2 (mouse, UniProt Q9DBP0 1-697)
T1 construct: whole, on cells
T1 sequence (looked up): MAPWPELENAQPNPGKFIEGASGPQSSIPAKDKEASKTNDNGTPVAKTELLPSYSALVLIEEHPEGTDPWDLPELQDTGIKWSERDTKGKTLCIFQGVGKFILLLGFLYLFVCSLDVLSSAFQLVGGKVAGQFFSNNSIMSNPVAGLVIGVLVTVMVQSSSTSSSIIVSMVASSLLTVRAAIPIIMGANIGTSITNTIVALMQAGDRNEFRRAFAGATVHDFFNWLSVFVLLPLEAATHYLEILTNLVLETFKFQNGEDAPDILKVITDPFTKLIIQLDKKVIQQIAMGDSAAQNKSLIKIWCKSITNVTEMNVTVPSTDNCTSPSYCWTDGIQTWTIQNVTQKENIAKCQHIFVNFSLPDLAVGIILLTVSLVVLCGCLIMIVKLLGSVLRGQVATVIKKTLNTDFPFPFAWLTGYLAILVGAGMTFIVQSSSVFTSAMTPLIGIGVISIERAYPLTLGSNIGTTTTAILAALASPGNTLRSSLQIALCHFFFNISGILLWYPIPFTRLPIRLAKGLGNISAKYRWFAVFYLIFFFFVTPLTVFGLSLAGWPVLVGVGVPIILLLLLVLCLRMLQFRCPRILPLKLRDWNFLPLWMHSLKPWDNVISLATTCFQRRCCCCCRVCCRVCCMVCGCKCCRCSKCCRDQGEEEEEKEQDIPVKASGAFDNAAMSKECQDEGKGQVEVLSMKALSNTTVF

T2: human SLC34A2 (human, UniProt O95436 1-690)
T2 construct: whole, on cells; also called human solute carrier 34 A2; NaPi2b
T2 sequence (looked up): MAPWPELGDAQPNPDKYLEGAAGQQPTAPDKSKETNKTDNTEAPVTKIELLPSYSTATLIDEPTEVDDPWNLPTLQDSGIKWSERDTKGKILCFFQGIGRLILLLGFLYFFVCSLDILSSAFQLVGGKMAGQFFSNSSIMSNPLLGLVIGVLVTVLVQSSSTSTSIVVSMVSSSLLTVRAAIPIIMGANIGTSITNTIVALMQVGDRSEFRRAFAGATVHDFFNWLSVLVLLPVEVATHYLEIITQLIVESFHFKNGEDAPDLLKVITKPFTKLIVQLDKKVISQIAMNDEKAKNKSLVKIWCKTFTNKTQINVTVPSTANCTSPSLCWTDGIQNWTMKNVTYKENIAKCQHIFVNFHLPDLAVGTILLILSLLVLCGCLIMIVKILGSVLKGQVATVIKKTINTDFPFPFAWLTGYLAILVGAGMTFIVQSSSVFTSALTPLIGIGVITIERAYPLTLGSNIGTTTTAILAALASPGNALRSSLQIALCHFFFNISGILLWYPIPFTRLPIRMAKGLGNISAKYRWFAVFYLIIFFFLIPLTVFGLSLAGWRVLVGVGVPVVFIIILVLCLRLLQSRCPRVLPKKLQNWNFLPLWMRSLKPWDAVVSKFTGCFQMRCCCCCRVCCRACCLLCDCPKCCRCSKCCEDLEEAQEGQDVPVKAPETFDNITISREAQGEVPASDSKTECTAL

T3: Rhesus SLC34A2 (Rhesus, UniProt F7HDA3 1-690)
T3 construct: whole, on cells
T3 sequence: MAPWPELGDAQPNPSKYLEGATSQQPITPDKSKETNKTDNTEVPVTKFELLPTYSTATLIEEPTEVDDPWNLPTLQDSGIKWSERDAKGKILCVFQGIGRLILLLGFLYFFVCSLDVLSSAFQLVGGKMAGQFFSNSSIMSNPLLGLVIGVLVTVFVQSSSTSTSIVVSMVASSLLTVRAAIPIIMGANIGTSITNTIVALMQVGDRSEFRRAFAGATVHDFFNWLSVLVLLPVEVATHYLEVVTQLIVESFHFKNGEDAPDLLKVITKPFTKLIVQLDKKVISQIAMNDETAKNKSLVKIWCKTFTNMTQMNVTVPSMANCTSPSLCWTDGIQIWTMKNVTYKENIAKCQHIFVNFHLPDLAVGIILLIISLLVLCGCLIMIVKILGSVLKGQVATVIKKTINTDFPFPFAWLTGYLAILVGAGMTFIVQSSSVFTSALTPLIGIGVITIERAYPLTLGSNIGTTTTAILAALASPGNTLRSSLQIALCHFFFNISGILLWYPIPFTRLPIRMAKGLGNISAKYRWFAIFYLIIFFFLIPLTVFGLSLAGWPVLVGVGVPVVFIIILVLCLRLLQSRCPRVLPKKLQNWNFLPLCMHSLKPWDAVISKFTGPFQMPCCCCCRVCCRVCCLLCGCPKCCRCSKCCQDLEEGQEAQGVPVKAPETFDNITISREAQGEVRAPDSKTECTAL


Tests used:
mouse SLC34A2 = target: T1, mouse SLC34A2; test: FACS, HEK293/Mouse SLC34A2 cells
human SLC34A2 [1] = target: T2, human SLC34A2; test: FACS, MDAH2774 cells
human SLC34A2 [2] = target: T2, human SLC34A2; test: FACS, HEK293/human SLC34A2 cells
Rhesus SLC34A2 [3] = target: T3, Rhesus SLC34A2; test: FACS, HEK293/Rhesus SLC34A2 cells
Protocol: Briefly, the Rhesus SLC34A2 expressing HEK293 engineering cells (HEK293/Rhesus_SLC34A2) were incubated with chimeric Abs (from 200 nM, 4 folds dilution, 8 points). After incubation at 4° C. for 60 minutes, the cells were washed with FACS buffer twice, then stained with fluorescent conjugated secondary antibody at 4° C. for 30 minutes. After that the cells were washed twice and analyzed by flow cytometry.

Rhesus SLC34A2 [4] = target: T3, Rhesus SLC34A2; test: FACS, HEK293/Rhesus SLC34A2 cells; remark: listed apart in the source
human SLC34A2 [5] = target: T2, human SLC34A2; test: FACS, OVCAR3 cells
human SLC34A2 [6] = target: T2, human SLC34A2; test: cell-based or functional assay

Binder | EC50 (mouse SLC34A2) | EC50 (human SLC34A2 [1]) | EC50 (human SLC34A2 [2]) | EC50 (Rhesus SLC34A2 [3]) | Top (MFI) (Rhesus SLC34A2 [3]) | EC50 (Rhesus SLC34A2 [4]) | Top (MFI) (Rhesus SLC34A2 [4]) | EC50 (human SLC34A2 [5]) | Top (MFI) (human SLC34A2 [5]) | ADCC reporter EC50 (human SLC34A2 [6]) | ADCC reporter Top (MFI) (human SLC34A2 [6])
62G10E4G8.p3.z15 hIgG1 (antibody, V domains shown, humanized hIgG1) VH: QVQLVQSGAEVVKPGASVKMSCKASGYTFPSYITHWVKQAPGQGLEWIGAIYPGNADTSYIQKFKGRATLTADKSTSTAYMELSSLRSEDTAVYYCARGTYGTSAWFTYWGQGTLVTVSS VL: EIVLTQSPATLSVSPGERATLSCRARQNIGNNLYWYQQKPGQSPRLLIKYASQSISGIPSRFSGSGSGTDFTLTISSLQSEDFAVYFCQQSFSWPLTFGQGTKLEIK | 5.74 nM | 2.82 nM | 2.86 nM | – | – | – | – | – | – | – | –
xi62G10E4G8 hIgG1 (antibody, V domains shown, chimeric, hIgG1) VH: QVQLQQSGAEVVKPGASVKMSCKASGYTFPSYITHWVKQTPGQGLEWIGAIYPGNGDTSYIQKFKGKATLTADKSSSTAYMQLSSLTSEDSAVYYCARGTYGTSAWFTYWGQGTLVTVSA VL: DIVLTQSPATLSVTPGDSVSLSCRARQNIGNNLYWYQQKSHESPRLLIKYASQSISGIPSRFSGSGSGTDFTLTINSVETEDFGVYFCQQSFSWPLTFGAGTKLELK | – | – | – | 2.53 nM | 12000 MFI | 3.7 nM | 39100 MFI | 5.8 nM | 71100 MFI | 4.8 nM | 542000 MFI
xi91C9F1 hIgG1 (antibody, V domains shown, chimeric, hIgG1) VH: EVQLQQSGPELVKPGTSVKISCKTSGFFFTEYIIHWVKQSHGRSLEWIGGIIPNNGVTNYKQNFRGKAALTADKSSNTAYMELRSLTSEDSAVYYCARWRNGYYSAMDSWGQGTSVTVSS VL: DIVVTQSHKFMSTSLGDRVSITCTASQDVGTAVAWYQQKPGHSPKLLIYWASTRHTGVPERFTGSGSGTDFTLTITNVQSEDLADYFCQQYRTSPLTFGVGTKLELK | – | – | – | 0.95 nM | 12200 MFI | 3.9 nM | 15500 MFI | 1.6 nM | 63300 MFI | 2.8 nM | 215000 MFI
30H9B8F9.p1.z5 hIgG1 (antibody, V domains shown, humanized hIgG1) VH: QVQLVQSGAEVKKPGASVKVSCKTSGYTFTTNNMHWVRQAPGQGLEWIGAIYPGSGATAYNQKFKGRVTMTADTSTSTVYMELSSLRSEDTAVYYCARGMYGHGAMDYWGQGTLVTVSS VL: DIQLTQSPSFLSASVGDRVTITCKASQDVGTAVAWYQQKPGKAPKLLIYWATTRHSGVPSRFSGSGSGTEFTLTISSLQPEDFATYYCQQYSSNPLTFGQGTKLEIK | 2.06 nM | 1.28 nM | 2.4 nM | – | – | – | – | – | – | – | –
XMT-1536 (antibody, INN chains, looked up, V domains shown, rilsodotin auristatin payload) VH: QVQLVQSGAEVVKPGASVKMSCKASGYTFTGYNIHWVKQAPGQGLEWIGAIYPGNGDTSYKQKFRGRATLTADTSTSTVYMELSSLRSEDSAVYYCARGETARATFAYWGQGTLVTVSS VL: DIQMTQSPSSLSASVGDRVTITCSASQDIGNFLNWYQQKPGKTVKVLIYYTSSLYSGVPSRFSGSGSGTDYTLTISSLQPEDFATYYCQQYSKLPLTFGQGTKLELK | – | 7.09 nM | – | – | – | – | – | – | – | – | –
xi30H9B8F9 hIgG1 (antibody, V domains shown, chimeric, hIgG1) VH: QVQLQQPGAELVKPGASVKMSCKTSGYTFTTNNMHWVKQTPGQGLEWIGAIYPGNGATAYNQKFKGKATLTADKSSSTAYMQLSSLTSEASAVYYCARGMYGHGAMDYWGQGTSVIVSS VL: DIVMTQSHKFMSRSVGDRVRITCKASQDVGTAVAWYQQKPGQSPKLLIYWATTRHSGVPDRFTGSGSGTDFIFTISNVQSEDLADYFCQQYSSNPLTFGAGTKLELK | – | – | – | 1.26 nM | 17000 MFI | 1.9 nM | 47900 MFI | 1.1 nM | 69100 MFI | 3.1 nM | 487000 MFI

Now from value to binder:

EC50 (mouse SLC34A2) | EC50 (human SLC34A2 [1]) | EC50 (human SLC34A2 [2]) | EC50 (Rhesus SLC34A2 [3]) | Top (MFI) (Rhesus SLC34A2 [3]) | EC50 (Rhesus SLC34A2 [4]) | Top (MFI) (Rhesus SLC34A2 [4]) | EC50 (human SLC34A2 [5]) | Top (MFI) (human SLC34A2 [5]) | ADCC reporter EC50 (human SLC34A2 [6]) | ADCC reporter Top (MFI) (human SLC34A2 [6]) | Binder
5.38 nM | 15.1 nM | 5.87 nM | – | – | – | – | – | – | – | – | 63A11D5B4.p1.z9 hIgG1 (antibody, V domains shown, humanized hIgG1) VH: QVQLVQSGAEVVKPGASVKMSCKTSGYTFITYNMHWVRQAPGQGLEWIGAIYPGSGDTSYNQKFKGRVTLTADKSTSTAYMELSSLRSEDTAVYYCSISTIITTGAVDYWGQGTLVTVSS VL: DIQMTQSPSSLSASVGDRVTITCKASQDVGTAVAWYQQKPGKVPKLLIYWTSTRHTGVPSRFSGSGSGTDFTLTISSLQPEDVATYYCQQYSRIPLTFGGGTKVEIK
3.34 nM | 2.06 nM | 2.72 nM | – | – | – | – | – | – | – | – | 91C9F1.p1.z7 hIgG1 (antibody, V domains shown, humanized hIgG1) VH: QVQLVQSGAEVKKPGSSVKVSCKTSGFFFTEYIIHWVRQAPGQGLEWIGGIIPNNDVTNYKQNFRGRVTLTADKSTSTAYMELSSLRSEDTAVYYCARWRNAYYSAMDSWGQGTTVTVSS VL: DIQVTQSPSSLSTSVGDRVTITCTASQDVGTAVAWYQQKPGKSPKLLIYWASTRHTGVPERFTGSGSGTDFTLTISSVQPEDVATYFCQQYRTSPLTFGVGTKVEIK
– | – | – | 2.56 nM | 15100 MFI | 4.6 nM | 45500 MFI | 9.2 nM | 78600 MFI | 4.6 nM | 216000 MFI | xi63A11D5B4 hIgG1 (antibody, V domains shown, chimeric, hIgG1) VH: QVQLQQPGAELVKPGASVKMSCRTSGYTFITYNMHWVKQTPGQGREWIGAIYPGNGDTSYNQKFKGKATLTADKSSSTAYMQLNSLTSEDSAVYYCSISTIITTGAVDYWGQGTSVTVAS VL: DIVMTQSHKFMSTSVGDRVSITCKASQDVGTAVAWYQQKAGQSPKLLIYWTSTRHTGVPDRFTGSGSGTDFTLIIRSLQSEDLADYFCQQYSRIPLTFGSGTKLEIK

— patent US20240301052A1 (LANOVA MEDICINES DEVELOPMENT, published 2024)
